The data set deals with T1, DisCas7-11 (Desulfonema ishimotonii).
T1 chain: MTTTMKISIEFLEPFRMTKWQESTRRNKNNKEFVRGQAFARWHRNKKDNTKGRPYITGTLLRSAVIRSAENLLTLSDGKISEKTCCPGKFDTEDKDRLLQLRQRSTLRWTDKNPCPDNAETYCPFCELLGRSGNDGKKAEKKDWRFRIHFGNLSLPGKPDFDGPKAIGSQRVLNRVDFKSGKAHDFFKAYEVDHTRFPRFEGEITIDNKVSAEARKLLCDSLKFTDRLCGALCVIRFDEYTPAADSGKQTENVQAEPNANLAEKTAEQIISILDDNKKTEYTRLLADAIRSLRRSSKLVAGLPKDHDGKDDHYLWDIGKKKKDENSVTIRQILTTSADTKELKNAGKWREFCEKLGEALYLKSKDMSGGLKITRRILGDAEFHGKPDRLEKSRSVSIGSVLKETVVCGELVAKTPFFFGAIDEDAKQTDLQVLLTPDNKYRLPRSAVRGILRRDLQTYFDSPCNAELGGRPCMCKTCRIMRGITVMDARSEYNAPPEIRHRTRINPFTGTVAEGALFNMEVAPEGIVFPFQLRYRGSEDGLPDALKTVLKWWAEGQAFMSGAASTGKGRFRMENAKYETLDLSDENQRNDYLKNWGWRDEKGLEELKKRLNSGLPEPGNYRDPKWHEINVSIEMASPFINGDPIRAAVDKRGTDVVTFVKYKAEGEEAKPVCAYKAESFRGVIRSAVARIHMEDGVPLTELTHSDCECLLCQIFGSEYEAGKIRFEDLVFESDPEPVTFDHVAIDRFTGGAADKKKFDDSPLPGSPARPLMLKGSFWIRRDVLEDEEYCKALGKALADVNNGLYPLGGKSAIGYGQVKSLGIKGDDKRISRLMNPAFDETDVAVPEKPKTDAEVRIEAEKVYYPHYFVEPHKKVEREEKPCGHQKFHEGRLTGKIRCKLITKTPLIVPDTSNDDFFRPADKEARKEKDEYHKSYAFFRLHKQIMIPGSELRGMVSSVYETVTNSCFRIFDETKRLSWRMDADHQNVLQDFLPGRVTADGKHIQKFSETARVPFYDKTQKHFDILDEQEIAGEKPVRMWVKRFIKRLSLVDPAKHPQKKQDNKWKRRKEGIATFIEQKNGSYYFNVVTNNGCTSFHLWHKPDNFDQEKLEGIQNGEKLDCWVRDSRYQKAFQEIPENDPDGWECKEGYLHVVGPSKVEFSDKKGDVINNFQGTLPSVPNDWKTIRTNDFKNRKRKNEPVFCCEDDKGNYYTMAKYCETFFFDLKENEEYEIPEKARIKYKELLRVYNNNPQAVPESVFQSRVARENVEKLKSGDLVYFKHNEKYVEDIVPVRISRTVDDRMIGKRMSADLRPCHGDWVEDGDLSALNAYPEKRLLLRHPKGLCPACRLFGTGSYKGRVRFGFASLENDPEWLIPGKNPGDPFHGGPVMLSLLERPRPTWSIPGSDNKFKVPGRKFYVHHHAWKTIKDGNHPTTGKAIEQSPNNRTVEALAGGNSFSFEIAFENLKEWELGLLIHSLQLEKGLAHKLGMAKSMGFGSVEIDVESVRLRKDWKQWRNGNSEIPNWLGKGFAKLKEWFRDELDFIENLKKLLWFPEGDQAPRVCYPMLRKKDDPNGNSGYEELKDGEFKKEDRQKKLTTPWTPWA
The experiment in a line: EMSA; target binding crRNA-dependent; non-targeting control. Conditions: tags: Twin-Strep-SUMO tag cleaved off during purification; label: Cy5.5 body label. How it is done:
Electrophoretic mobility shift assays (EMSA) for crRNA-target interactions and quantification of EMSA intensities were performed (FIGS. 17A-F). The EMSA assays for targeting crRNA in the absence of DisCas7-11 show minimal binding of the cRNA and shift of the labeled target).

B1: DisCas7-11 non-targeting crRNA ; MS2 target 153 nt (ssRNA ; ssRNA)
RNA 1: GGUUGGAAAGCCGGUUUUCUUUGAUGUCACGGAACCGCCAAUAUAACAAUACAGGUAUUAUAGUUG
RNA 2: GGGGCAAACUCCGGCAUCUACUAAUAGACGCCGGCCAUUCAAACAUGAGGAUUACCCAUGUCGAAGACAACAAAGAAGUUCAACUCUUUAUGUAUUGAUCUUCCUCGCGAUCUUUCUCUCGAAAUUUACCAAUCAAUUGCUUCUGUCGCUACU
B1: the binding result is listed as “no binding”.

The values are drawn from US20240294890, “SYSTEMS, METHODS, AND COMPOSITIONS FOR RNA-GUIDED RNA-TARGETING CRISPR EFFECTORS” (MASSACHUSETTS INSTITUTE OF TECHNOLOGY, published 2024).
